Measured values reported in PMC11722011, “NMR Studies on the Structure of Yeast Sis1 and the Dynamics of Its Interaction with Ssa1-EEVD” (Molecules, 2024).
Ends that are not written are not given here.

T1: full-length Sis1 (residues 1–352), Sis1_(1–352) (S. cerevisiae, UniProt P25294 1-352)
T1 construct: Sis1, class B J-domain protein of S. cerevisiae, residues 1-352 (352 residues long); J-domain 1-72, GF 73-121, GM 122-178, CTDI 179-257, CTDII 258-335, dimerization domain 336-352; 15N- or 2H/15N-labelled; also called 15N-Sis1_(1–352); 2H-15N-Sis1_(1–352)
T1 sequence (looked up): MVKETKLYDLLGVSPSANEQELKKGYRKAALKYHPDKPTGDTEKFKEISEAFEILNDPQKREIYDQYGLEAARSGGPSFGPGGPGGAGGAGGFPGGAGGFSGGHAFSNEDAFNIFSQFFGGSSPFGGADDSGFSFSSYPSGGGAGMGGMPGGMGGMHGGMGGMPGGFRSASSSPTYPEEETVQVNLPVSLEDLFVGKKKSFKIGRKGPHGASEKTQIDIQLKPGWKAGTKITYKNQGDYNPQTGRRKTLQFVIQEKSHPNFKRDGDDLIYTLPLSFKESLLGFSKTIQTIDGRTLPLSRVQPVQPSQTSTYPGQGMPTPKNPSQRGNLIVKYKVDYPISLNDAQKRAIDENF

T2: Sis1_(1–81), J-domain of Sis1 (residues 1–81) (S. cerevisiae, UniProt P25294 1-81)
T2 construct: Sis1, class B J-domain protein of S. cerevisiae, residues 1-81: J-domain (1-72) and part of the GF region (73-81); 15N-labelled for HSQC, 13C/15N-labelled for the structure; also called 15N-Sis1_(1–81)
T2 sequence (looked up): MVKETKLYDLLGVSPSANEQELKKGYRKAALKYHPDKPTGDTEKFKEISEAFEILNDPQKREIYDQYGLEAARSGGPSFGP

B1: TEMPO-labeled CGPTIEEVD peptide (TEMPO-EEVD) (peptide)
peptide: C(4‑maleimide‑TEMPO)GPTIEEVD
notes: N-terminal cysteine that carries the spin label; also called spin-labeled EEVD; paramagnetic EEVD peptide; source: synthetic peptide (GenOne Biotechnologies), labelled with 4-maleimide-TEMPO, HPLC (C18) purified
B2: GPTIEEVD peptide (EEVD peptide, C-terminal motif of HSP70/Ssa1) (peptide)
peptide: GPTIEEVD
notes: also called Ssa1-EEVD; source: synthetic peptide (GenOne Biotechnologies, Rio de Janeiro)

Tests used:
Conditions in all cases: both partners purified
[1] = target: T1, full-length Sis1 (residues 1–352), …; test: NMR titration; paramagnetic relaxation enhancement: Sis1(1-352) with TEMPO-labeled EEVD peptide, TROSY spectra, paramagnetic against diamagnetic (reduced with ascorbate) intensity ratio
[2] = target: T2, Sis1_(1–81), J-domain of Sis1 (residues …); test: NMR titration; paramagnetic relaxation enhancement: 15N-Sis1(1-81) titrated with TEMPO-labeled …, 1H-15N HSQC at 900 MHz; diamagnetic sample after reduction with 3 mM ascorbic acid; intensity ratio Ipara/Idia
[3] = target: T1, full-length Sis1 (residues 1–352), …; test: NMR titration; 1H-15N TROSY of 0.3 mM 15N-Sis1(1-352) free and with GPTIEEVD (1:4 protein:peptide), CSP; 25 mM Tris-HCl pH 7.5, 200 mM NaCl, 10% D2O, 303 K

Binder | binding result [1] | binding result [2] | binding result [3]
B1 | binds | binds | –
B2 | – | – | binds
